Data on one molecule can be found in patent US6867016.

The target of this assay is rabbit anti-CS141 peptide antiserum raised against unconjugated peptide SEQUENCE ID NO 26. Description: competition Western blot; antiserum pre-incubated with varying concentrations of peptide immunogen. In general terms: In western blotting, separated proteins are transferred to a membrane and probed.

Consider GPTMCFEDRMIMSPVKNNVGRGLNIALVNGTTGAVLGQK [CS141 synthetic peptide SEQUENCE ID NO 26], for which the concentration of peptide at which antibody binding to the band was inhibited is 2.54 µM.
